Three molecules from paper PMC4427524 (Molecular cell, 2015) can be followed below.

This assay deals with purified recombinant WDR5 (used for FPA) (UniProt P61964 1-334). Briefly: fluorescence polarisation.

Where no end group is shown, it is not given here. Some results are limits rather than exact numbers.

What is called Kd is a measure of binding affinity in units of concentration. Take DEEEIDGVSV [MbIIIb mutant peptide V264G]: the dissociation constant (Kd) was over 500 µM.
DEEEIDVVSV (also: FITC label (position not given here)) [FITC-labeled MbIIIb peptide (residues 258–267 of human c-MYC)]: the Kd amounted to 9.3 µM.
The same measure for DEEEEDEESV [MbIIIb mutant peptide WBM (I262/V264/V265 to glutamic acid)]: over 500 µM.
